Patent US20240325555A1

Experiments:
[1] = molecular target: T1, mouse LIV-1 (mouse) (UniProt Q8C145); assay: FACS, HEK293/Mouse_LIV-1 cells
T1 sequence (looked up): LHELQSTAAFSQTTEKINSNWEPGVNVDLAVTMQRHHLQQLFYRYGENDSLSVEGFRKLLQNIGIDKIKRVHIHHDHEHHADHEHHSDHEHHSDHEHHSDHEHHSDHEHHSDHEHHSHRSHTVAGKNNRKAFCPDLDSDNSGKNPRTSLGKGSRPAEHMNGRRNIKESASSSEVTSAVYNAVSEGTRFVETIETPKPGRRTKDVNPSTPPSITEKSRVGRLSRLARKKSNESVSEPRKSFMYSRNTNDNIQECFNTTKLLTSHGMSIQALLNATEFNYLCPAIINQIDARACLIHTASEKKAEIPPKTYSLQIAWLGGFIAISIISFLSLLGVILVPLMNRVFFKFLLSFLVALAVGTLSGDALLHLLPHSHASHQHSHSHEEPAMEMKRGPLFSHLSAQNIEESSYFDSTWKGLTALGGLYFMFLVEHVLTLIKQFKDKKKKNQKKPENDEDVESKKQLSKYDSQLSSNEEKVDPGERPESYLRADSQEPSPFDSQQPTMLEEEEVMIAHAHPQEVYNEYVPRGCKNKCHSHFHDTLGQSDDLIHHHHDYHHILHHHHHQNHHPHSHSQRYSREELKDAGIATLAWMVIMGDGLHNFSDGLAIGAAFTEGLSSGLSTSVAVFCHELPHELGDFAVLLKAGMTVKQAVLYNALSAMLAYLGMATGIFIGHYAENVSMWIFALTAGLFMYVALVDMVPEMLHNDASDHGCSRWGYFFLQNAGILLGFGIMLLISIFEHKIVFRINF

[2] = molecular target: T2, rat LIV-1 (rat) (UniProt Q4V887); assay: FACS, HEK293/Rat_LIV-1 cells
T2 sequence (looked up): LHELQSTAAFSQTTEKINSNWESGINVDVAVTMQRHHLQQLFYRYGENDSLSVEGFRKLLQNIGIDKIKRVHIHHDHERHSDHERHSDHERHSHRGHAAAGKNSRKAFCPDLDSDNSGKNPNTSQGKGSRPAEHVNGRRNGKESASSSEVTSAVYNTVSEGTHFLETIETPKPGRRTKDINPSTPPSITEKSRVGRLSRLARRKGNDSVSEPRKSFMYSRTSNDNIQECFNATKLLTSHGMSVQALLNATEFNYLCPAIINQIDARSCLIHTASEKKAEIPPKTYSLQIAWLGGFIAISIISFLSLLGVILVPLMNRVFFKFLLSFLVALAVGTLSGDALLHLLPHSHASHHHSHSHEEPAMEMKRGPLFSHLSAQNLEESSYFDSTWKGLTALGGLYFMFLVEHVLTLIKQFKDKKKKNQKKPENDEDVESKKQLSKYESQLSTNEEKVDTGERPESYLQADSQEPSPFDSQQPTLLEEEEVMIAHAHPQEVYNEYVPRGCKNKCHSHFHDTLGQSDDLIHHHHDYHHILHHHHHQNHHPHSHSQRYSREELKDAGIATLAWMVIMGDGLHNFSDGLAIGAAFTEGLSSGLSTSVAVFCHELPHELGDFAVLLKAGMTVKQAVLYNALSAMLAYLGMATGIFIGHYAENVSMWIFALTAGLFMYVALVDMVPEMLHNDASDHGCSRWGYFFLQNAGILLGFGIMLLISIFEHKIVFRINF

Top (MFI) [1]: 121 MFI
Top (MFI) [2]: 150 MFI
B1: 5D6B10 (antibody, V domains shown)
VH: QVQLKQSGPGLVQPSQSLSITCTVSGFSLTTYGIHWVRQSPGKGLEWLGVIWTGGTTDYNAAFISRLSISKDNSKSQVFFKMNSLQANDTAIYYCARGPSSYWGQGTLVTVSA
VL: DIVMTQSQKFMSTSVGDRVSVTCKASQNVDTNVVWYQQKPGQSPKALIHSASYRYSGVPDRFTGSGSGTDFTLTISNVQSEDLAEYFCQQYNNYPWTFGGGTKLEIK
